The source of these data is patent US11814435B2, “Therapeutic antibodies and their uses” (PFIZER INC., priority 2015, dated 2023).

The target in one test is CD3 (Homo sapiens, UniProt P07766). The test can be described thus: Biacore kinetics of anti-CD3 hIgG2dA bispecifics at 37° C. It counts as binding.
For another test, the target named is T1, hBCMA (human BCMA) (Homo sapiens, UniProt Q02223).
T1 sequence (Q02223 1-184): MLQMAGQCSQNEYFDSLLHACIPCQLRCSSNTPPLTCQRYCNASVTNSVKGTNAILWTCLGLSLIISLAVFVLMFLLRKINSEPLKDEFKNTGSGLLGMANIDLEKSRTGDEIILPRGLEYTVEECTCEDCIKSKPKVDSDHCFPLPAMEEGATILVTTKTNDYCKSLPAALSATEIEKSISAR
The test can be described thus: Kinetics and affinity of hBCMA/human IgG interactions by SPR (Bio-Rad Proteon XPR36). It is filed as binding. Conditions: human BCMA, 37° C. Put shortly:
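Anti-BCMA IgGs were amine-coupled to a GLC chip, and hBCMA analyte was injected as a single-cycle kinetic titration (0.08, 0.4, 2, 10, 50 nM; 2 min each) at 37° C. or 25° C. in HBS-T+ pH 7.4 with 1 mg/mL BSA. Dissociation was followed 2 hours, with double-referenced 1:1 Langmuir-plus-mass-transport fitting.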

Another test relates to Cyno BCMA. The test can be described thus: Kinetics and affinity of cyno BCMA/human IgG interactions by SPR (Bio-Rad Proteon XPR36). It is filed as binding, cynomolgus. The note with it: 37° C.

Chain of CD3 (P07766 23-126 limits assumed): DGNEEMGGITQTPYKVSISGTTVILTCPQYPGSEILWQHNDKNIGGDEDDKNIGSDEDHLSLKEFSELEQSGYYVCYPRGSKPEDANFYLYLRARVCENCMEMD
Chain of CD3 (P04234 22-105 partner limits assumed): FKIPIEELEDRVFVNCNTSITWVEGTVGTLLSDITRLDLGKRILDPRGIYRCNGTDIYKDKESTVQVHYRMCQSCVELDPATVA

B1: h2B4-1d_Ep: anti-EpCam/CD3 bispecific, human IgG2dA, anti-CD3 arm h2B4-1d (h2B4) (antibody, V domains shown)
VH: EVQLVESGGGLVQPGGSLRLSCAASGFTFSDYYMTWVRQAPGKGLEWVAFIRNRARGYTSDHNASVKGRFTISRDNAKNSLYLQMNSLRAEDTAVYYCARDRPSYYVLDYWGQGTTVTVSS
VL: DIVMTQSPDSLAVSLGERATINCTSSQSLFNVRSRKNYLAWYQQKPGQPPKLLISWASTRESGVPDRFSGSGSGTDFTLTISSLQAEDVAVYYCKQSYDLFTFGSGTKLEIK
modifications: left off: another chain or arm of the molecule; a dimerising Fc or GST; small tags and cut ends
As for B1, in the test with CD3, binding was put at a Kd of 40.4 nM, the ka was determined as 586000 M⁻¹ s⁻¹ and the kd came to 0.0237 s⁻¹.

B2: h2B4-TK_Ep: anti-EpCam/CD3 bispecific, human IgG2dA, anti-CD3 arm h2B4-TK (h2B4-VH-wt VL_TK) (antibody, V domains shown)
VH: EVQLVESGGGLVQPGGSLRLSCAASGFTFSDYYMTWVRQAPGKGLEWVAFIRNRARGYTSDHNASVKGRFTISRDNAKNSLYLQMNSLRAEDTAVYYCARDRPSYYVLDYWGQGTTVTVSS
VL: DIVMTQSPDSLAVSLGERATINCKSSQSLFNVRSRKNYLAWYQQKPGQPPKLLISWASTRESGVPDRFSGSGSGTDFTLTISSLQAEDVAVYYCKQSYDLFTFGSGTKLEIK
modifications: left off: another chain or arm of the molecule; a dimerising Fc or GST; small tags and cut ends
For the molecule B2, in the test with CD3, the equilibrium dissociation constant (Kd) was 31 nM, the ka was determined as 687000 M⁻¹ s⁻¹ and the kd came to 0.0213 s⁻¹.

B3: COMBO_Rd4_0.6 nM_C14: anti-BCMA antibody (antibody, V domains shown)
VH: EVQLLESGGGLVQPGGSLRLSCAASGFTFSSYPMSWVRQAPGKGLEWVSAIGGSGGSLPYADSVKGRFTISRDNSKNTLYLQMNSLRAEDTAVYYCARYWPMDIWGQGTLVTVSS
VL: EIVLTQSPGTLSLSPGERATLSCRASQSVSALYLAWYQQKPGQAPRLLMYDASIRATGIPDRFSGSGSGTDFTLTISRLEPEDFAVYYCQQYYGWPLTFGQGTKVEIK
Turning to B3, in the test with hBCMA (human BCMA), the “ka Human” value came out at 8.66e+06 M⁻¹ s⁻¹ and the “kd Human” value came out at 0.000328 s⁻¹. Also, in the test with Cyno BCMA, the “ka Cyno” value turned out to be 3.48e+06 M⁻¹ s⁻¹ and the “kd Cyno” value amounted to 0.000645 s⁻¹.

B4: P5A2_VHVL: anti-BCMA antibody (antibody, V domains shown)
VH: EVQLLESGGGLVQPGGSLRLSCAASGFTFSSYAMNWVRQAPGKGLEWVSAISDSGGSTYYADSVKGRFTISRDNSKNTLYLQMNSLRAEDTAVYYCARYWPMDIWGQGTLVTVSS
VL: EIVLTQSPGTLSLSPGERATLSCRASQSVSSSYLAWYQQKPGQAPRLLMYDASIRATGIPDRFSGSGSGTDFTLTISRLEPEDFAVYYCQQYGSWPLTFGQGTKVEIK
On to B4, for which, in the test with hBCMA (human BCMA), the “ka Human” value is 6.96e+06 M⁻¹ s⁻¹ and the “kd Human” value stood at 0.0387 s⁻¹. In the test on Cyno BCMA, the “ka Cyno” value worked out at 1.61e+06 M⁻¹ s⁻¹ and the “kd Cyno” value is 0.0164 s⁻¹.

B5: COMBO_Rd4_6 nM_C22: anti-BCMA antibody (antibody, V domains shown)
VH: EVQLLESGGGLVQPGGSLRLSCAASGFTFSSYAMNWVRQAPGKGLEWVSACLDSGGSTYYADSVKGRFTISRDNSKNTLYLQMNSLRAEDTAVYYCARYWPMDSWGQGTLVTVSS
VL: EIVLTQSPGTLSLSPGERATLSCRASQSVSSSYLAWYQQKPGQAPRLLMYDASIRATGIPDRFSGSGSGTDFTLTISRLEPEDFAVYYCQQYQGWPLTFGQGTKVEIK
For B5, in the test with hBCMA (human BCMA), the “ka Human” value was 3.03e+06 M⁻¹ s⁻¹ and the “kd Human” value is 0.000775 s⁻¹. Also, in the test on Cyno BCMA, the “ka Cyno” value amounted to 1.7e+06 M⁻¹ s⁻¹ and the “kd Cyno” value amounted to 0.00165 s⁻¹.

B6: A02_Rd4_0.6 nM_C06: anti-BCMA antibody (antibody, V domains shown)
VH: EVQLLESGGGLVQPGGSLRLSCAASGFTFSSYAMNWVRQAPGKGLEWVSAISDSGGSAWYADSVKGRFTISRDNSKNTLYLQMNSLRAEDTAVYYCARYWPMSLWGQGTLVTVSS
VL: EIVLTQSPGTLSLSPGERATLSCRASQSVSVLYLAWYQQKPGQAPRLLMYDASIRATGIPDRFSGSGSGTDFTLTISRLEPEDFAVYYCQQYQRWPLTFGQGTKVEIK
Turning to B6, in the test with hBCMA (human BCMA), binding was characterised by a dissociation constant (Kd) of 0.021 nM, the “ka Human” value amounted to 3.49e+06 M⁻¹ s⁻¹ and the “kd Human” value was 7.37e-05 s⁻¹. On Cyno BCMA, the dissociation constant (Kd) was 0.058 nM, the “ka Cyno” value came out at 1.81e+06 M⁻¹ s⁻¹ and the “kd Cyno” value was determined as 0.000105 s⁻¹.

B7: A02_Rd4_6 nM_C03: anti-BCMA antibody (antibody, V domains shown)
VH: EVQLLESGGGLVQPGGSLRLSCAASGFTFSSYAMNWVRQAPGKGLEWVSAISDSGGSTYYADSVKGRFTISRDNSKNTLYLQMNSLRAEDTAVYYCARYWPMDIWGQGTLVTVSS
VL: EIVLTQSPGTLSLSPGERATLSCRASQSVSNLYLAWYQQKPGQAPRLLMYDASIRATGIPDRFSGSGSGTDFTLTISRLEPEDFAVYYCQQYQGWPLTFGQGTKVEIK
Turning to B7, in the test with hBCMA (human BCMA), the “ka Human” value turned out to be 1.69e+06 M⁻¹ s⁻¹ and the “kd Human” value came to 0.000126 s⁻¹. Also, in the test with Cyno BCMA, the “ka Cyno” value is 1.17e+06 M⁻¹ s⁻¹ and the “kd Cyno” value was found to be 0.000185 s⁻¹.

B8: COMBO_Rd4_6 nM_C07: anti-BCMA antibody (antibody, V domains shown)
VH: EVQLLESGGGLVQPGGSLRLSCAASGFTFSSYPMSWVRQAPGKGLEWVSAIGGSGGSLPYADSVKGRFTISRDNSKNTLYLQMNSLRAEDTAVYYCARYWPMADWGQGTLVTVSS
VL: EIVLTQSPGTLSLSPGERATLSCRASQPISSSYLAWYQQKPGQAPRLLMYDASIRATGIPDRFSGSGSGTDFTLTISRLEPEDFAVYYCQQYQGWPLTFGQGTKVEIK
Consider B8, for which, in the test with hBCMA (human BCMA), the “ka Human” value was 1.05e+07 M⁻¹ s⁻¹ and the “kd Human” value is 0.000371 s⁻¹. In addition, in the test with Cyno BCMA, the “ka Cyno” value turned out to be 3.94e+06 M⁻¹ s⁻¹ and the “kd Cyno” value was 0.000934 s⁻¹.

B9: COMBO_Rd4_0.6 nM_C11: anti-BCMA antibody (antibody, V domains shown)
VH: EVQLLESGGGLVQPGGSLRLSCAASGFTFSSYPMSWVRQAPGKGLEWVSAALGSGGSTYYADSVKGRFTISRDNSKNTLYLQMNSLRAEDTAVYYCARYWPMSLWGQGTLVTVSS
VL: EIVLTQSPGTLSLSPGERATLSCRASQSVSVRYLAWYQQKPGQAPRLLMYDASIRATGIPDRFSGSGSGTDFTLTISRLEPEDFAVYYCQQYGSWPITFGQGTKVEIK
B9: in the test with hBCMA (human BCMA), the “ka Human” value came to 5.11e+06 M⁻¹ s⁻¹ and the “kd Human” value was found to be 0.00106 s⁻¹. Besides, in the test on Cyno BCMA, the “ka Cyno” value worked out at 2.2e+06 M⁻¹ s⁻¹ and the “kd Cyno” value worked out at 0.00423 s⁻¹.

B10: COMBO_Rd4_6 nM_C02: anti-BCMA antibody (antibody, V domains shown)
VH: EVQLLESGGGLVQPGGSLRLSCAASGFTFSSYAMNWVRQAPGKGLEWVSAISDSGGFVYYADSVKGRFTISRDNSKNTLYLQMNSLRAEDTAVYYCARYWPMDSWGQGTLVTVSS
VL: EIVLTQSPGTLSLSPGERATLSCRASQSVSSSYLAWYQQKPGQAPRLLMYDASIRATGIPDRFSGSGSGTDFTLTISRLEPEDFAVYYCQQYEFWPLTFGQGTKVEIK
For the molecule B10, in the test with hBCMA (human BCMA), the “ka Human” value came out at 1.05e+06 M⁻¹ s⁻¹ and the “kd Human” value turned out to be 0.000443 s⁻¹. In the test with Cyno BCMA, the “ka Cyno” value came to 795000 M⁻¹ s⁻¹ and the “kd Cyno” value is 0.00136 s⁻¹.

B11: COMBO_Rd4_0.6 nM_C05: anti-BCMA antibody (antibody, V domains shown)
VH: EVQLLESGGGLVQPGGSLRLSCAASGFTFSSYAMNWVRQAPGKGLEWVSAIGGSGGSTYYADSVKGRFTISRDNSKNTLYLQMNSLRAEDTAVYYCARYWPMSLWGQGTLVTVSS
VL: EIVLTQSPGTLSLSPGERATLSCRASQSVSSTYLAWYQQKPGQAPRLLMYDASIRATGIPDRFSGSGSGTDFTLTISRLEPEDFAVYYCQQYMSWPLTFGQGTKVEIK
With B11, in the test with hBCMA (human BCMA), the “ka Human” value is 4.32e+06 M⁻¹ s⁻¹ and the “kd Human” value turned out to be 0.000497 s⁻¹. In the test with Cyno BCMA, the “ka Cyno” value is 1.94e+06 M⁻¹ s⁻¹ and the “kd Cyno” value is 0.00172 s⁻¹.

B12: A02_Rd4_0.6 nM_C09: anti-BCMA antibody (antibody, V domains shown)
VH: EVQLLESGGGLVQPGGSLRLSCAASGFTFSSYAMNWVRQAPGKGLEWVSAISDSGGSMWYADSVKGRFTISRDNSKNTLYLQMNSLRAEDTAVYYCARYWPMSLWGQGTLVTVSS
VL: EIVLTQSPGTLSLSPGERATLSCRASQSVSSSYLAWYQQKPGQAPRLLMYDASIRATGIPDRFSGSGSGTDFTLTISRLEPEDFAVYYCQQYQSWPLTFGQGTKVEIK
Turning to B12, in the test with hBCMA (human BCMA), the “ka Human” value worked out at 5.5e+06 M⁻¹ s⁻¹ and the “kd Human” value was 9.75e-05 s⁻¹. For the same molecule, in the test on Cyno BCMA, the “ka Cyno” value is 2.13e+06 M⁻¹ s⁻¹ and the “kd Cyno” value came to 0.000174 s⁻¹.

B13: COMBO_Rd4_0.6 nM_C17: anti-BCMA antibody (antibody, V domains shown)
VH: EVQLLESGGGLVQPGGSLRLSCAASGFTFSSYPMSWVRQAPGKGLEWVSAIGGSGGSLPYADSVKGRFTISRDNSKNTLYLQMNSLRAEDTAVYYCARYWPMDIWGQGTLVTVSS
VL: EIVLTQSPGTLSLSPGERATLSCRASQGISSTYLAWYQQKPGQAPRLLMYDASIRATGIPDRFSGSGSGTDFTLTISRLEPEDFAVYYCQQYAYWPLTFGQGTKVEIK
On to B13, for which, in the test with hBCMA (human BCMA), the “ka Human” value is 8.68e+06 M⁻¹ s⁻¹ and the “kd Human” value was 0.000801 s⁻¹. For the same molecule, in the test with Cyno BCMA, the “ka Cyno” value worked out at 3.06e+06 M⁻¹ s⁻¹ and the “kd Cyno” value came to 0.00101 s⁻¹.
